# Data from US9345743B2, “Agent for promoting proliferation of bifidobacteria” (MORINAGA MILK INDUSTRY CO., LTD., priority 2011, dated 2016).
# Legend:
# Assay in all cases: Bifidobacterium proliferation promoting activity, turbidity at 630 nm after 16 h anaerobic culture in MRS medium
# Type in all cases: cell-based
# Conditions in all cases: 37° C.
# [1] = tested on: Bifidobacterium bifidum ATCC 29521
# Experimental: (§1) A 9.375 μM aqueous solution of each peptide was adjusted to pH 6.5 with an HCl aqueous solution, and subjected to filtration sterilization using a 0.22-μm membrane. Each peptide solution was diluted with dilution water to obtain 9.375 μM, 3.125 μM, 0.9375 μM, and 0.3125 μM sample solutions. As the dilution water, purified water adjusted to pH 6.5 with an HCl solution and sterilized at 115° C. for 15 minutes was used.
# (§2) Bifidobacterium proliferation promoting activities of the aforementioned peptides were evaluated as follows.
# (§3) The bifidobacteria used for the experiment were as follows. These strains can be obtained from ATCC (American Type Culture Collection, http://www.atcc.org/). • Bifidobacterium infantis ATCC 15697^T • Bifidobacterium breve ATCC 15700^T • Bifidobacterium bifidum ATCC 29521^T
# (§4) A cell suspension of each strain (100 μL) cryopreserved in a 10% skim milk medium was added to the MRS liquid medium (3 mL), and culture was performed at 37° C. for 16 hours under an anaerobic condition. The culture medium (100 μL) was added to the MRS liquid medium (3 mL). The MRS liquid medium was prepared by dissolving Difco Lactobacilli MRS Broth (5.5 g, BD, “Difco” is a registered trademark of Difco Laboratories, Incorporated), and L-cysteine monohydrochloride monohydrate (50 mg, Wako Pure Chemical Industries, Co., Ltd.) in pure water so as to obtain a final volume of 100 mL, adjusting the solution to pH 6.5 with an HCl aqueous solution, and sterilizing the solution at 115° C. for 15 minutes. Further, a concentrated medium containing the components at twofold concentrations was prepared in the same manner as described above, except that Difco Lactobacilli MRS Broth and L-cysteine monohydrochloride monohydrate were used in amounts of 11 g and 100 mg, respectively.
# (§5) The aforementioned culture medium was diluted with the MRS liquid medium so as to obtain a turbidity of 0.8 measured at a wavelength of 630 nm. This diluted culture medium was further diluted 100 times with the MRS liquid medium. The obtained diluted culture medium is referred to as 1% diluted culture medium.
# (§6) Anaerobic culture was performed at 37° C. for 16 hours in a mixture of 100 μL of the twofold concentrated culture medium, 80 μL of a sample solution or the dilution water, and 20 μL of the 1% diluted culture medium (inoculation volume was 0.1%) or the MRS liquid medium (inoculation volume was 0%) on a 96-well plate (FALCON 353072). The final concentration of the peptide in the mixture was 3.75 μM, 1.25 μM, 0.375 μM, 0.125 μM, or 0 μM.
# (§7) After the culture, turbidity of each culture medium was measured at a wavelength of 630 nm, and the proliferation promoting ratio (%) was calculated in accordance with the following equation. Proliferation promoting ratio (%)=(ODS1−ODS0)/(ODC1−ODC0)×100−100
# (§8) ODS1: Turbidity observed after culture performed at a sample concentration of 3.75 to 0.125 μM and inoculation volume of 0.1% for 16 hours
# (§9) ODS0: Turbidity observed after culture performed at a sample concentration of 3.75 to 0.125 μM and inoculation volume of 0% for 16 hours
# (§10) ODC0: Turbidity observed after culture performed at a sample concentration of 0 μM and inoculation volume of 0% for 16 hours
# (§11) Bifidobacterium proliferation promoting activities of the aforementioned peptides were evaluated in the same manner as that of Example 1.
# [2] = tested on: Bifidobacterium infantis ATCC 15697
# Experimental: as §1, §2, §3, §4, §5, §6, §7, §8, §9, §10, §11
# [3] = tested on: Bifidobacterium breve ATCC 15700
# Experimental: as §1, §2, §3, §4, §5, §6, §7, §8, §9, §10, §11
molecule,measurement,setting,value
"bovine lactoferrin (protein, UniProt P24627 20-708, looked up) Lactotransferrin: APRKNVRWCTISQPEWFKCRRWQWRMKKLGAPSITCVRRAFALECIRAIAEKKADAVTLDGGMVFEAGRDPYKLRPVAAEIYGTKESPQTHYYAVAVVKKGSNFQLDQLQGRKSCHTGLGRSAGWIIPMGILRPYLSWTESLEPLQGAVAKFFSASCVPCIDRQAYPNLCQLCKGEGENQCACSSREPYFGYSGAFKCLQDGAGDVAFVKETTVFENLPEKADRDQYELLCLNNSRAPVDAFKECHLAQVPSHAVVARSVDGKEDLIWKLLSKAQEKFGKNKSRSFQLFGSPPGQRDLLFKDSALGFLRIPSKVDSALYLGSRYLTTLKNLRETAEEVKARYTRVVWCAVGPEEQKKCQQWSQQSGQNVTCATASTTDDCIVLVLKGEADALNLDGGYIYTAGKCGLVPVLAENRKSSKHSSLDCVLRPTEGYLAVAVVKKANEGLTWNSLKDKKSCHTAVDRTAGWNIPMGLIVNQTGSCAFDEFFSQSCAPGADPKSRLCALCAGDDQGLDKCVPNSKEKYYGYTGAFRCLAEDVGDVAFVKNDTVWENTNGESTADWAKNLNREDFRLLCLDGTRKPVTEAQSCHLAVAPNHAVVSRSDRAAHVKQVLLHQQALFGKNGKNCPDKFCLFKSETKNLLFNDNTECLAKLGGRPTYEEYLGTEYVTAIANLKKCSTSPLLEACAFLTR",Proliferation promoting ratio (%),"[1]; B. bifidum ATCC 29521, 0.125 μM",8%
same,Proliferation promoting ratio (%),"[1]; B. bifidum ATCC 29521, 0.375 μM",8%
same,Proliferation promoting ratio (%),"[1]; B. bifidum ATCC 29521, 1.25 μM",10%
same,Proliferation promoting ratio (%),"[1]; B. bifidum ATCC 29521, 3.75 μM",12%
same,Proliferation promoting ratio (%),"[2]; B. infantis ATCC 15697, 0.125 μM",1%
same,Proliferation promoting ratio (%),"[2]; B. infantis ATCC 15697, 0.375 μM",1%
same,Proliferation promoting ratio (%),"[2]; B. infantis ATCC 15697, 1.25 μM",13%
same,Proliferation promoting ratio (%),"[2]; B. infantis ATCC 15697, 3.75 μM",23%
same,Proliferation promoting ratio (%),"[3]; B. breve ATCC 15700, 0.125 μM",2%
same,Proliferation promoting ratio (%),"[3]; B. breve ATCC 15700, 0.375 μM",4%
same,Proliferation promoting ratio (%),"[3]; B. breve ATCC 15700, 1.25 μM",8%
same,Proliferation promoting ratio (%),"[3]; B. breve ATCC 15700, 3.75 μM",21%
